Experimental data from IntAct's records for PubMed 21145460.

B1: Regulator of nonsense transcripts 1 (Homo sapiens), Q92900-2 (parent)
chain: MSVEAYGPSSQTLTFLDTEEAELLGADTQGSEFEFTDFTLPSQTQTPPGGPGGPGGGGAGGPGGAGAGAAAGQLDAQVGPEGILQNGAVDDSVAKTSQLLAELNFEEDEEDTYYTKDLPIHACSYCGIHDPACVVYCNTSKKWFCNGRGNTSGSHIVNHLVRAKCKEVTLHKDGPLGETVLECYNCGCRNVFLLGFIPAKADSVVVLLCRQPCASQSSLKDINWDSSQWQPLIQDRCFLSWLVKIPSEQEQLRARQITAQQINKLEELWKENPSATLEDLEKPGVDEEPQHVLLRYEDAYQYQNIFGPLVKLEADYDKKLKESQTQDNITVRWDLGLNKKRIAYFTLPKTDSDMRLMQGDEICLRYKGDLAPLWKGIGHVIKVPDNYGDEIAIELRSSVGAPVEVTHNFQVDFVWKSTSFDRMQSALKTFAVDETSVSGYIYHKLLGHEVEDVIIKCQLPKRFTAQGLPDLNHSQVYAVKTVLQRPLSLIQGPPGTGKTVTSATIVYHLARQGNGPVLVCAPSNIAVDQLTEKIHQTGLKVVRLCAKSREAIDSPVSFLALHNQIRNMDSMPELQKLQQLKDETGELSSADEKRYRALKRTAERELLMNADVICCTCVGAGDPRLAKMQFRSILIDESTQATEPECMVPVVLGAKQLILVGDHCQLGPVVMCKKAAKAGLSQSLFERLVVLGIRPIRLQVQYRMHPALSAFPSNIFYEGSLQNGVTAADRVKKGFDFQWPQPDKPMFFYVTQGQEEIASSGTSYLNRTEAANVEKITTKLLKAGAKPDQIGIITPYEGQRSYLVQYMQFSGSLHTKLYQEVEIASVDAFQGREKDFIILSCVRANEHQGIGFLNDPRRLNVALTRARYGVIIVGNPKALSKQPLWNHLLNYYKEQKVLVEGPLNNLRESLMQFSKPRKLVNTINPGARFMTTAMYDAREAIIPGSVYDRSSQGRPSSMYFQTHDQIGMISAGPSHVAAMNIPIPFNLVMPPMPPPGYFGQANGPAAGRGTPKGKTGRGGRQKNRFGLPGPSQTNLPNSQASQDVASQPFSQGALTQGYISMSQPSQMSQPGLSQPELSQDSYLGDEFKSQIDVALSQDSTYQGERAYQHGGVTGLSQY
B2: Regulator of nonsense transcripts 1 (Homo sapiens), Q92900-2 (parent)
chain: B1 chain
partner: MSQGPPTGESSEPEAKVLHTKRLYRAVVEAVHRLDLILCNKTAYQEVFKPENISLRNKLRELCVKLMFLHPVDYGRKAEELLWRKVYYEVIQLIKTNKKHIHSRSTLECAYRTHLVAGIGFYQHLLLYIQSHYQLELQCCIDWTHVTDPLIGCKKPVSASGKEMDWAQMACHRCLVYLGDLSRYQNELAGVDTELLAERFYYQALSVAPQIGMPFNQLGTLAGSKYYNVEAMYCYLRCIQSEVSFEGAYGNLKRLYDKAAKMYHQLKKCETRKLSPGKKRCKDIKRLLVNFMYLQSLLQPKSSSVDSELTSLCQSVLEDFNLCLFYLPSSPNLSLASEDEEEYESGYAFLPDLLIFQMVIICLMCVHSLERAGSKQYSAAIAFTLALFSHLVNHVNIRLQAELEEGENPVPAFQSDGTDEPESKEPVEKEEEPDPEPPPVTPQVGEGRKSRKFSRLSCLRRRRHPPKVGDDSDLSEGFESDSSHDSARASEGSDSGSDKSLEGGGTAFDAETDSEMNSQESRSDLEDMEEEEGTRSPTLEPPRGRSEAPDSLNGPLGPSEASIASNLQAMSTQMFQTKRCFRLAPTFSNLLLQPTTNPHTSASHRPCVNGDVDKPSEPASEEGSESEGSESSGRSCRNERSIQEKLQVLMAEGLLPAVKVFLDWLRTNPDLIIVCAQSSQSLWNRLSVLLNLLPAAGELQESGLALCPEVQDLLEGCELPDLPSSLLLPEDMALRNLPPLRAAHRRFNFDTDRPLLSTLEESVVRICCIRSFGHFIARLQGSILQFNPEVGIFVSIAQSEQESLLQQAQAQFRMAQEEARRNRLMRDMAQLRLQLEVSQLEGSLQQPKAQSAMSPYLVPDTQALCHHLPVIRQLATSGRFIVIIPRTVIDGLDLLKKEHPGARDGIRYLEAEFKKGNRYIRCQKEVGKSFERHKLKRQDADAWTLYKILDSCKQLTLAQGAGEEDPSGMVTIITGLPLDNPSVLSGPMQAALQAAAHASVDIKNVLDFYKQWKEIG

Variants of: B1
Conditions: with est1a_human SMG6, Q86US8
Sequence of est1a_human SMG6, Q86US8 (Q86US8 whole entry): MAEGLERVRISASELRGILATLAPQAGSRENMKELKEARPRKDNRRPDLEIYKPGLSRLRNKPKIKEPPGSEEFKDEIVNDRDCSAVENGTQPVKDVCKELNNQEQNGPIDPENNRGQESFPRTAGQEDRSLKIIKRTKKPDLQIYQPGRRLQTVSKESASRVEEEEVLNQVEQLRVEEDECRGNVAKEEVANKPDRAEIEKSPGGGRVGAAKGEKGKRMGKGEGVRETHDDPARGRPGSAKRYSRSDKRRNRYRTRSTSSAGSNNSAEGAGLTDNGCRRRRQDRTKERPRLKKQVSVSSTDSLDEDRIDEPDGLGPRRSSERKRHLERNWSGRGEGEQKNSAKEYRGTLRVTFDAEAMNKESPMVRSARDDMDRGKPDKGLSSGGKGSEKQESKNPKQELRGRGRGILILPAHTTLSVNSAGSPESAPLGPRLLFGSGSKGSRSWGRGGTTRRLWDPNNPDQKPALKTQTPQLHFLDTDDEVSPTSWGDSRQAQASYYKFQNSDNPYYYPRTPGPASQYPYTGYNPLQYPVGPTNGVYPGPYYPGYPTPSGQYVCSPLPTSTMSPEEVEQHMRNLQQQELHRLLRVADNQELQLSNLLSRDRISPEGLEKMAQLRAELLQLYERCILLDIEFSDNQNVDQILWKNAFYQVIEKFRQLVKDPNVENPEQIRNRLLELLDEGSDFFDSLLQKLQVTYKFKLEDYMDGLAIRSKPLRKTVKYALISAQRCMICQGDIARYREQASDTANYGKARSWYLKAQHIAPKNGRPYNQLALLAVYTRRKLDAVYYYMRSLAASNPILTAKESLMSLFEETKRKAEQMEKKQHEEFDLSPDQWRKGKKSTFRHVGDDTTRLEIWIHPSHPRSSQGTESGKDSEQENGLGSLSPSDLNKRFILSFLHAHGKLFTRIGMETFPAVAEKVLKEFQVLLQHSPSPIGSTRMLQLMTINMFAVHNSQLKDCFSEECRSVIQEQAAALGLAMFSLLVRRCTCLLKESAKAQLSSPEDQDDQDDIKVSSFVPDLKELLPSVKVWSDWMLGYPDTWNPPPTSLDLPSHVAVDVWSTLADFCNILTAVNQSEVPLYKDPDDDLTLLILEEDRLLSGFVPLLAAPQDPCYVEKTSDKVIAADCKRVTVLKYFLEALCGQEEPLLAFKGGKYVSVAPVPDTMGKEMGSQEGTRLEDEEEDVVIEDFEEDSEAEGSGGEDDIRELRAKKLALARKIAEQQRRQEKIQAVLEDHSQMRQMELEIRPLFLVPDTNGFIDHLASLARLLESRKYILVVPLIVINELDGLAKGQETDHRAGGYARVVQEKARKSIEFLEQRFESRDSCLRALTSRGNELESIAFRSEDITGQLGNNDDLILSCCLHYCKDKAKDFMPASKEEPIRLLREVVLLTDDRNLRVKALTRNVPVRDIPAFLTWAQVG

Variant	effect of a mutation on the interaction
K498A	increasing interaction
D636A;E637A	increasing interaction

Variants of: B2
Conditions: with smg5_human SMG5, Q9UPR3

Variant	effect of a mutation on the interaction
K498A	increasing interaction
D636A;E637A	increasing interaction
